Results on 3 substances are retold here after US20140322196A1.

What all share (assay): cell-based or functional assay
Test [1] addresses Hemagglutinin (HA) of Influenza A virus A/Wisconsin/67/2005 H3N2 (inactivated subunits, vaccine) (Influenza A virus A/Wisconsin/67/2005 H3N2).
Test [2] concerns the target Hemagglutinin (HA) of Influenza A virus A/Parma/24/09 (Brisbane-like) (oseltamivir-resistant) H1N1 (Influenza A virus A/Parma/24/09 H1N1).
Test [3] concerns the target Hemagglutinin (HA) of Influenza A virus A/Solomon 3/2006 H1N1 (inactivated subunits, vaccine) (Influenza A virus A/Solomon 3/2006 H1N1).

For the substance “Lactoferrin from bovine milk (bLf) (from UniProt P24627 20-708)”, the HI titre in test [1] stood at 300 fM; in test [2], 6000 pM; in test [3], 5000 fM.

With “… (SEQ ID NO: 1), bLf C-lobe peptide 418-429”, the HI titre in test [1] came out at 23.2 fM; in test [2], 1.4 pM; in test [3], 46.5 fM.

As for “… (SEQ ID NO: 2), bLf C-lobe peptide 506-522”, the results for the HI titre in test [1], in test [2] and in test [3] were 11.6 fM, 1.4 pM and 46.5 fM, respectively.
